tested on: Saccharomyces cerevisiae; assay: transcriptional activation domain activity (GFP:mCherry ratio, weighted mean of sorted bins, harmonized to initial dataset scale) (arbitrary fluorescence ratio units); higher = stronger transcriptional activation; details: beta-estradiol 1 µM; induction time 4 h
In short: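 Yeast diploids with a GFP reporter received barcoded protein tiles, fused to an estradiol-inducible synthetic transcription factor, at the URA3 locus. Cultures were diluted 1:5 into SC holding 1 uM beta-estradiol, incubated 4 hours at 30 °C, sorted into 8 bins on GFP:mCherry ratio, and sequenced for barcodes, with tiles under 50 reads discarded. Activation activity values come from the read-weighted mean of bin median fluorescence, averaged across barcodes and linearly placed on the initial dataset scale.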

| Sequence | transcriptional activation domain activity |
| --- | --- |
| SGFPSVGFNFFLFFSMMQPAMFLVSLFFQSLFFLCLNTCVCFFGFNFFFLVHW | 34800 |
| PPYALGYFGESDHGFCSLKVDLVYSNFMIYYLIVVPRLLVYFYCLLILFFIAM | 61600 |
| FNIVAFGIIILDFWGMIGIWTQKFGFHHVWEVWLYQVYYGLFVCPWYSYSQIM | 80200 |
| MFFLSSFSALLAFSPPPSLLLLLLLLLTFPLSGFLALFLPRFSISLLTLSFFY | 50700 |
| MIPSSAPLNFFLPFPFQFWFFFDFFFLTVEQPFFLCVVFFLLAFYVMLLYFFI | 17900 |
| TESVCWDFVWLTFYFTFGLTSLITSWAALPPLSQWSLSFGQLVPIFLLLFFLT | 46700 |
| DHFDAPEPWSMFWYDPALDGTWWDQLPLDHFFPSELGAWASARSSWTDLTGSY | 155000 |
| RLYAVRLVIVILVMELTLHFLYVVAISKSKAWDGASPLELSMVGYFNLVIIWM | 42900 |
| GGNIHIRSLFIIAMVFLFFGLVLLTIGFFSDFRKSWFVWRLRTCWLWANGTRF | 57800 |
| SSGGEKGGAKETEKTPKWYVDGIRYGRATDMKLVKHLISLRVHLSTASLVWIE | 86800 |
| MLIILLSSLVLWRLGSPCFFYTLFLFYISERSISQLPPPPTLLSILFFFTFIA | 53100 |
| DDLQQLLEDLGNIDHSDEKLWKEITDQAMWLGNTMDPTAAAGSEIDFTDYLGP | 144000 |
| EATEPAEKPKRKRGRPPGSKNKKTLAAQGGTGEASAAEPPPKRPRGRPPKRKP | 34600 |
| MSPSGAVPSTAQVVPGACVNIVLKADQRTGRQVSGTVRDVLTRGDHHRGIKVR | 41300 |
| MDCLGMEFIGCEIFGAVALIFLFFFLFFFFFIFFHFLLIFLFSFSFFLFFFFV | 47200 |
| HHLSSQLVFSRSRFFYSSFTSWINVFLVISLIVFLLSILLLFLIIFLLHYIFF | 24800 |
| FLLAIRVSNMDLLMIGIMLTLFVRNVIVSTDYIRRGRVRYKALFYVLLCKYYR | 49600 |
| AAATAEGAASSRQPSERERKREREREEERERGKEREREKERKQAAEASTSANE | 58800 |
| DSDSEEEEEGWQLSPHDVDKVRQMLEPDEVSLQRALQTTPAMRIGMIIWLVIT | 53000 |
| EKRGAAKRADRSRSRSRGRSRGAKDVARRRRRNSSADSHEAREHRRQGKRGRS | 44700 |
| SGEATATPEKSKTPRKRKTKAEGDSADNGDADGSPKKKAGGRKKKADVVKEEM | 23600 |

| Sequence | transcriptional activation domain activity |
| --- | --- |
| GHKAEESVPRKPSRSKSKAREAEWAPDGGEEPVSRKPSRSKAKPKAAEVEKED | 23200 |
| IFSLILALIGMIILATIDVVHKIGVTYFACFLMAAGSYVPTVLVHSWHNNNNL | 50300 |
| VIRGLEELVYLDIRLPFQVEFLNMNPLLLGPACILRSMTLVILSSDGCFPTSR | 54000 |
| KKLHLESEEDAEYIVAKAIRDGVIEAQVNHERGEMTSRETGDVYSTNEPQAQL | < 6570 |
| CSNIAEQADQCDFVKSYCDGFSGYYLMLYYCSPFWRPISIFILLSCLLMLFGA | 30700 |
| AAERRQQGHRAKENEKRRQEEARRGRKERGAGGGKAKAGRKPAGQPRRRRSRE | 32900 |
| GLKRLAMLLRRMLSEKDLIFVFKGLQFLKYWTLSAEEIHTHARYWRRAWKILS | 52400 |
| MFVCTSQSFIRSMGLYGFYLTGLMMTLLVVVVSLTFIQYPTIVILTLFHCLIS | 44800 |
| FVLLFSIFQILFSKSPFVLCVWLISLALIATIKTMYSVLITWHLQFLAFPFYS | 54400 |
| FCRALIHSQGEGPKSIYESSVISLTEAARAIINISRRSFTLHQTLTCRMWYFL | 49900 |
| TDDYFQTVLMSGLLRVLKDPASSGQHHTVIEAIMAIFKTWIMLAFAAVTRSSV | 56900 |
| GRKILNVFALVFFFINLFLFCLFLALTMCRYAMFPRLWGLMLRDPVQSLYLGC | 46700 |
| RRRFHRRVTGCNCGVKTYKLGESYNDEFESTYLSYYACRICLLVTSLYIARFW | 44500 |
| ACVALVVLFADSLDDLIPGWGIVAWKIVCGFILVPLGFLPLRLLSFTSILGVM | 58500 |
| MHRLHYLMCIIIGVRLTAVVGLGRHRVVYVYCFCFSDTSRKMVRQDGIKLFTA | 43200 |
| KLLCVGRPFRASSTEVVVTMALLSMLRHLPTTRWKDSLKLLAWVLEQYIYRFT | 51000 |
| NTWLQQLQDELNGSYSLTDNVNTPIDPSLSDLGVTSASPLAGNSPGLPPEEVR | 92100 |
| EESLKHHEGINMVWRKFQSIFRIIGGIIYYEPIYRAFVRHVLHHLHLDNVLWV | 64600 |
| LASISSLQSSQSLDQNFSIPQSPPLSSMSFNFLTGNINETNQNHSNHQHSKSG | 22700 |
| KASGSARESVDGEEDKEEAKEKNKENVKVEEKLDADEGEKESKVKAEAAKEPG | 20300 |
| MLRFYVLISFFFFLCNHLLFLICFIYIREFLSHLSGALVLCFGCMVWFLNFPS | 62000 |

| Sequence | transcriptional activation domain activity |
| --- | --- |
| TDRGGRRGKDYDPADRRHRRRGSSSSSDDRRRSRSRSKSRTRKAAETAAVAGV | 59200 |
| ANPEPTDDDFHIFGGRHVFFTTDDPWLIFLGFILQHLDRLLNRMLFWWCVEWV | 56900 |
| AIAEYKWVHLKKGAELTLIDVYDGCTRGLSGFSLTIRAMHFDFVLLVAFLFHL | 50400 |
| FPPLFVSPLRLRYPFCGILFNIDTLFFRFLLVHIWLPFFCTYLYPYLLPFHWA | 74200 |
| GERGRGGEEERRGRGRGRGREEREREKERRERERRRRREEEEERGEEERRGRR | 29400 |
| GKRAREESDEENDEEEEAEGEGAEKEGEEEEEEEEVKKPAAKRARTAKGAAAK | 13500 |
| AAEVKQAKEETGEKAQKKEKKEKEKKAEAAEGGKKKEKAAGGGKPAAEEAAGE | 24500 |
| KQYCVRPNSGRIEAGKDVEVQVLLQAMKEDPPQGYKCRDKFLVQSVAITADRE | 21700 |
| EREREKREEREREAARLRREAEEREREEHEGRKREKREEPEEREAEEREREVE | 33200 |
| MVGVNGDHELLLCAIMFPPVLLIINSLLVSILFNDCFLVLSDILLCWMLSVVV | 50400 |
| LALQTMYFIPDIPQQALVDFWPRIWPWVQFFDIYGDIIRLCPPLQLYWVFFAY | 25500 |
| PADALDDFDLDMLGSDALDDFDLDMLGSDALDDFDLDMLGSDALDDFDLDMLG | 152000 |
| DLASPSDNDIDEARSREIAAKAVTGILVLLLKWLKLSHILKFEYLTQLLLDSN | 64400 |
| GTGRSSDDVSSGAGSEEVSQTLDEKMAEEQKGRQRLNNIIQQFYIKGALVIVG | 67400 |
| KKEEEGEESEPEKLPKSTKRGRKKVEEEVKAEGEEEEEEAPVAKKQKPAANGS | < 6570 |
| DSATPHGSPRRWTPSSKLSPSVAPSSPSSSTSTSSSPKARSRSHSRTCSTEVQ | 42200 |
| PFFRVHHLYLPSLLQVVNLAILTSHALFNFIPHFYIVCIIVFWEGLLGGLVYV | 60500 |
| MLLLSPFFPFLLPSSLSFFFPFPFISTLLSFCLSDTLFNLARSFFIAFLSTLF | 42600 |
| RVRAAERAGQQAGREGRRGRQRGEHARRGGRAAHERAAQAHHRAPVPVPVRVP | 62200 |
| KEVASADTKPADAPAGEAKAPKKEKKEKEKKPAEAAEGGKKKEKAAGGGGKAA | 36100 |
| PYLSRLGEKNILADLMEFYRCKESWSLQSGLVFIRRIILQQVPIDVRILCAFL | 35500 |

| Sequence | transcriptional activation domain activity |
| --- | --- |
| RSSVGAYIKPKQQVVAVPCVGPHDSGINVLYLCAPSVEEVVMLTRFVILHLGG | 55500 |
| MFPFVFLSSFLSCFRLYSFNTCYIFSLILLCWYTFLLSYNGSLFCYPMIVYFL | 70400 |
| FPIRIYSYVKLKWHLFLFDYCYFASMLNLIYLWILPNSTLLFTICYCAAHGPL | 61800 |
| VSSSSSSSSRTRKGGGDDEEVEGKERSATENKKKKLGKKGRIAARTKEKAAAA | 6920 |
| AQSTSVVLVFGSDEKKVKEIGEGLKSKLGIKGGGKGTRWSGKFTGVWKDAREG | 46700 |
| YTKTIATRNVANQTRLGKVRKSSVIVIAGNGHGRLGVGMAKSIEAPVATMAAT | 56400 |
| KKEEVKQEPAAPTPAPAPAPTGASSDRGGRGQGRGRARGDSSRGGGGRAAAPP | 38000 |
| SVVLGVLHMSLSICTQVPNFIHFGRPSSIITEFLPQILFLHCLFGYLVFMIIY | 79100 |
| KGHVKTGILSANDGVPPTPNLLDYDWNNLNITGYEWISSELRDDALLSAVTLQ | 131000 |
| GSSAFGASGSSGGAFGQPAAQQQQSAFGGGGGLFGKPQGSSFGSTALATTAGQ | 55800 |
| YMYLVIVVTFLSILKTSQAIAVVWVQNVLFFANPDIARTLLNIAWWQNSVTLM | 54800 |
| YSQLILYLLAKAKLHWNELQNLQVIFADLFEHIHIAGILPNKYQTLSVMANAL | 56500 |
| KSNGTEGAGAEGSKGGEGSTGEGSKGEGSSGEGAKGGEGSKGEGAGAEGSKGG | 36300 |
| MAPSASAGGSGAAKPKKTRAKHACRECNSRRVKCNVTERQPCTNCAASGATCE | 11700 |
| DEVTDWFGASEDIGLEFVEPWTELIEQRYMQCGDGDNNNFENLYNLFVNSNNI | 137000 |
| ASGAAAPSGTPSLFGAKPAGTTAAPATSTPAGGLFGAASSAAPAASATTPTTG | 47400 |
| SFLEGAQHVVLGPGNFQWRGTKCKSFDAFIFNFIRVPRLEYWKLIRRSNCYRY | 52500 |
| MSDLETPKRRRPGVRPRASQACRACAAAKVRCDNLQSCHRCQNKRVACVRGSH | 34100 |
| PDFYPLFYSRLIPLSVISFLVYTALFFLVFWPQYLFLVIFHGWGAWPTAIILF | 52600 |
| DREAKEDGGDTGGGGGRDRGGEEEEDEEEEEEEEEDDGFIKKTKKDKKKKKKK | 36100 |

From the supplement of paper PMC12636428
